In article PMC9928087, “Plasmids manipulate bacterial behaviour through translational regulatory crosstalk” one finds binding signal data, which are given here for 49 molecules.

The first data set deals with RsmQ (Pseudomonas fluorescens SBW25 plasmid pQBR103). The data set is described as follows: SPR. Particulars: 100 nM protein; mean of 0.445 and 0.102; listed as None 2; SPR (ReDCaT SA chip, Biacore 8K): 10 mM HEPES, 150 mM NaCl, 3 mM EDTA, 0.05% Tween 20, pH 7.4, 20 C; RsmQ 100 and 1000 nM (Fig 4: 100-1000 nM).
As for “CCGCGCACCCAGCGCAAACCCTACCCTACGTCCTCCTGC [NoBind_HP_2]”, the binding signal was determined as 0.27 %Rmax.

Staying with this data set, now noted: 100 nM protein; mean of 102.98 and 94.19; SPR (ReDCaT SA chip, Biacore 8K): 10 mM HEPES, 150 mM NaCl, 3 mM EDTA, 0.05% Tween 20, pH 7.4, 20 C; RsmQ 100 and 1000 nM (Fig 4: 100-1000 nM).
For the molecule “CCGCGCAGGAAGCGCAAACCCTACCCTACGTCCTCCTGC [Bind_HP (GGA hairpin)]”, the binding signal turned out to be 98.6 %Rmax.

Still in this data set, the particulars now being: SPR (ReDCaT SA chip, Biacore 8K): 10 mM HEPES, 150 mM NaCl, 3 mM EDTA, 0.05% Tween 20, pH 7.4, 20 C; RsmQ 100 and 1000 nM (Fig 4: 100-1000 nM).
With “TCTGTAATGACCACGGAAAAAGTGAAGTACCTACCCTACGTCCTCCTGC [PFLU4891]”, the binding signal is less than 50 %Rmax. Consider “TGCCCCCTTCAGATGGAGTTTCCCCCCGCCCTACCCTACGTCCTCCTGC [PFLU5986]”, for which the binding signal was less than 50 %Rmax.

Regarding “CGCATCATTTACATGGAAGCGAGTAATCACCTACCCTACGTCCTCCTGC [PFLU3467]”, the binding signal is less than 50 %Rmax.

In the case of “GTGAGGACTTTAATGGACGACAACAAGAACCTACCCTACGTCCTCCTGC [PFLU1189]”, the binding signal is less than 50 %Rmax. Same read-out and setting: in the case of “AGTCCTTTAGGCAAGGAGTTAATTGTCGTCCTACCCTACGTCCTCCTGC [PFLU5529]” it was less than 50 %Rmax; in that of “TTCTAATCGCCTAAGGAGCATTGAGATGTCCTACCCTACGTCCTCCTGC [PFLU4548]”, less than 50 %Rmax. On to “AACGGTTCAAATATTCAGAGGATCCAGCTCCTACCCTACGTCCTCCTGC [PFLU6118]”, for which the binding signal was less than 50 %Rmax. Same read-out and setting: in the case of “TATAAGACTCGTACCCCGGAGCGCTCTCGCCTACCCTACGTCCTCCTGC [PFLU4968]” it was less than 50 %Rmax; in that of “GAAACATTCCGAACGGAGAAAAAACTGGCCCTACCCTACGTCCTCCTGC [PFLU2486]”, less than 50 %Rmax; in that of “CGCCCGTGATCCCATGGAAACTCGAAGACTCCTACCCTACGTCCTCCTGC [PFLU0998]”, less than 50 %Rmax.

As for “CACCAACCCTGCACGTGGAGAGAACAACACCTACCCTACGTCCTCCTGC [PFLU5567]”, the binding signal is less than 50 %Rmax. For the molecule “ACTCAACCAGGAATAAGGAATACAAGAAACCTACCCTACGTCCTCCTGC [PFLU0296]”, the binding signal is less than 50 %Rmax. The same measure, in the same setting: for “GACATTAATCATATGGAGACACCCTCATGCCTACCCTACGTCCTCCTGC [PFLU4688]” the value was less than 50 %Rmax; for “AAGACCAGATCCAGGGATATGACGACGCACCTACCCTACGTCCTCCTGC [PFLU5652]”, less than 50 %Rmax. On to “TCATTACCCTGCAGGGACCAAATCAACTGCCTACCCTACGTCCTCCTGC [PFLU5860]”, for which the binding signal is less than 50 %Rmax.

Staying with this data set, now noted: mean of 1.178 and 0.729; SPR (ReDCaT SA chip, Biacore 8K): 10 mM HEPES, 150 mM NaCl, 3 mM EDTA, 0.05% Tween 20, pH 7.4, 20 C; RsmQ 100 and 1000 nM (Fig 4: 100-1000 nM).
For “GGGAAAAAATGTGGGCGGGTCATACCGCCCCTTTTTTTCCTACCCTACGTCCTCCTGC [RsmZ 127-end]”, the binding signal was determined as 0.95 %Rmax.

The data set is the same for the next values; noted with them: up to 1000 nM protein; SPR (ReDCaT SA chip, Biacore 8K): 10 mM HEPES, 150 mM NaCl, 3 mM EDTA, 0.05% Tween 20, pH 7.4, 20 C; RsmQ 100 and 1000 nM (Fig 4: 100-1000 nM).
As for “AACAATAATGCACATGGAGTAGCGTCGATGCCTACCCTACGTCCTCCTGC [PFLU0923]”, the binding signal is greater than 50 %Rmax. On the same count and under the same terms, for “GAAGACTTCGGCATGGAAGCGGCGCGAACCCTACCCTACGTCCTCCTGC [PFLU4726]” the value was greater than 50 %Rmax; for “GGAAGTTTTACTAGGGAAGTTGCTATTGCCCTACCCTACGTCCTCCTGC [PFLU4443 (fleQ)]”, greater than 50 %Rmax. Still for that read-out and setting: for “CGCCATTCTTCAAGGGAGAGCCGTGTGGCCCTACCCTACGTCCTCCTGC [PFLU1516]” the value was greater than 50 %Rmax.

The data set is the same for the next values; noted with them: up to 1000 nM protein; highest of the genomic oligos; SPR (ReDCaT SA chip, Biacore 8K): 10 mM HEPES, 150 mM NaCl, 3 mM EDTA, 0.05% Tween 20, pH 7.4, 20 C; RsmQ 100 and 1000 nM (Fig 4: 100-1000 nM).
For “TTATTATTCGCCAGGGACGGCATTCGGGGCCTACCCTACGTCCTCCTGC [PFLU3378]”, the binding signal was greater than 50 %Rmax.

A further data set has as its system RsmQ H43A (Pseudomonas fluorescens SBW25 plasmid pQBR103). The data set is described as follows: SPR. Conditions: 100 nM protein; listed as None 2; SPR (ReDCaT SA chip, Biacore 8K): 10 mM HEPES, 150 mM NaCl, 3 mM EDTA, 0.05% Tween 20, pH 7.4, 20 C; RsmQ 100 and 1000 nM (Fig 4: 100-1000 nM).
Regarding “CCGCGCACCCAGCGCAAACCCTACCCTACGTCCTCCTGC [NoBind_HP_2]”, the binding signal was -2.51 %Rmax.

The test system of a further data set is RsmQ R44A (Pseudomonas fluorescens SBW25 plasmid pQBR103). The data set is described as follows: SPR. Conditions: 100 nM protein; listed as None 2; SPR (ReDCaT SA chip, Biacore 8K): 10 mM HEPES, 150 mM NaCl, 3 mM EDTA, 0.05% Tween 20, pH 7.4, 20 C; RsmQ 100 and 1000 nM (Fig 4: 100-1000 nM). (In general: SPR reads the build-up and loss of mass on a sensor chip optically.)
For the molecule “CCGCGCACCCAGCGCAAACCCTACCCTACGTCCTCCTGC [NoBind_HP_2]”, the binding signal is -1.89 %Rmax.

Another data set addresses T1, RsmQ (Pseudomonas fluorescens SBW25 plasmid …, UniProt UPI00015066B5 1-62).
T1 sequence: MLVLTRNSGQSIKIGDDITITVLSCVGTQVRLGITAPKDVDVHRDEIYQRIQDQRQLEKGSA
Briefly: SPR (ReDCaT); 500 nM protein; HBS-EP+ (10 mM HEPES, 150 mM NaCl, 3 mM EDTA, 0.05% v/v Tween 20, pH 7.4), 20 C, Biacore 8K, ReDCaT SA chip; high values mean tight binding. Particulars: protein: recombinant; tags: C-terminal TEV site + 6xHis; chain copies: 2.
As to GGAAGTTTTACTAGGGAAGTTGCTATTGC (ssDNA) [PFLU4443 (fleQ)], the binding signal worked out at 83.36 ± 0.145 %Rmax. Still for that read-out and setting: in the case of AACGGTTCAAATATTCAGAGGATCCAGCT (ssDNA) [PFLU6118] it was 21.2 ± 0.215 %Rmax.

As to CTGCGCTCCCGATCCTGGATTTTCCGGCC (ssDNA) [PFLU5864], the binding signal was determined as 19.55 ± 0.081 %Rmax. The same measure, in the same setting: in the case of AACAATAATGCACATGGAGTAGCGTCGATG (ssDNA) [PFLU0923] it was 76.5 ± 1.26 %Rmax; in that of CGCCCGTGATCCCATGGAAACTCGAAGACT (ssDNA) [PFLU0998], 19.2 ± 0.463 %Rmax. The same measure, in the same setting: in the case of TTCTAATCGCCTAAGGAGCATTGAGATGT (ssDNA) [PFLU4548] it was 25.35 ± 0.144 %Rmax. As to TCTGTAATGACCACGGAAAAAGTGAAGTA (ssDNA) [PFLU4891], the binding signal was determined as 28.28 ± 0.104 %Rmax. The same measure, in the same setting: for CCGCGCACGGAAGCGCAAAC (structured_DNA) [Full_Bind_HP (ACGGA hairpin)] the value was 61.28 ± 0.301 %Rmax; for GGCCGCCCTCTCCGCTGATGGTCGTCTCG (ssDNA) [PFLU3427], 14.53 ± 0.0808 %Rmax; for TGCCCCCTTCAGATGGAGTTTCCCCCCGC (ssDNA) [PFLU5986], 23.9 ± 0.356 %Rmax. Same read-out and setting: in the case of TCCAGTTTAGGCTTCTAAGGAGCACACCC (ssDNA) [PFLU4414] it was 24 ± 0.491 %Rmax; in that of GAAGACTTCGGCATGGAAGCGGCGCGAAC (ssDNA) [PFLU4726], 52.22 ± 0.504 %Rmax. On the same count and under the same terms, for GACATTAATCATATGGAGACACCCTCATG (ssDNA) [PFLU4688] the value was 18.86 ± 0.102 %Rmax.

Turning to CACCAACCCTGCACGTGGAGAGAACAACA (ssDNA) [PFLU5567], the binding signal is 19.8 ± 0.479 %Rmax. As for TATAAGACTCGTACCCCGGAGCGCTCTCG (ssDNA) [PFLU4968], the binding signal was 17.5 ± 0.242 %Rmax.

Turning to ACTCAACCAGGAATAAGGAATACAAGAAA (ssDNA) [PFLU0296], the binding signal amounted to 29.5 ± 0.904 %Rmax. Same read-out and setting: for GAAACATTCCGAACGGAGAAAAAACTGGC (ssDNA) [PFLU2486] the value was 19.6 ± 0.424 %Rmax; for TTATTATTCGCCAGGGACGGCATTCGGGG (structured_DNA) [PFLU3378], 130.9 ± 0.261 %Rmax; for CGCATCATTTACATGGAAGCGAGTAATCA (ssDNA) [PFLU3467], 26.05 ± 0.116 %Rmax.

Take CGCCATTCTTCAAGGGAGAGCCGTGTGGC (ssDNA) [PFLU1516]: the binding signal is 63.68 ± 0.594 %Rmax. The same measure, in the same setting: for AAGACCAGATCCAGGGATATGACGACGCA (ssDNA) [PFLU5652] the value was 24.3 ± 0.196 %Rmax. Same read-out and setting: in the case of TCATTACCCTGCAGGGACCAAATCAACTG (ssDNA) [PFLU5860] it was 23.7 ± 0.45 %Rmax.

With GTGAGGACTTTAATGGACGACAACAAGAA (ssDNA) [PFLU1189], the binding signal is 24.64 ± 0.224 %Rmax.

For AGTCCTTTAGGCAAGGAGTTAATTGTCGT (ssDNA) [PFLU5529], the binding signal came to 41.03 ± 0.156 %Rmax. Regarding CCGCGCAGGAAGCGCAAAC (structured_DNA) [Bind_HP (GGA hairpin)], the binding signal came to 97.319 ± 0.0324 %Rmax. On the same count and under the same terms, for CAAAAATATAAATACCCGCGGGTGAAGTC (ssDNA) [PFLU2358] the value was 21.4 ± 0.255 %Rmax.
